Reference: the supplement of paper PMC6755084

B1: F1*; a variant is named by its letters at N, in order (parent)
chain: GAGACCGCAACTGAAAAGTTGTTATCNNNNNNNNAANNNNNTTNGNNGGGTTGAAGTTCTGCACGTAGAAGCAAAAGGC
B2: F1*; a variant is named by its letters at N, in order (parent)
chain: GAGACCGCAACTGAAAAGTTGTTATCACTTGTCGNANNNNNNTTNGNNNGGNTNNNGTTCTGCACGTAGAAGCAAAAGGC

Variants of: B1
Test: fraction ligated after 30 min (ligated reads / total reads); higher = more ligase activity
Conditions: with F1*sub RNA substrate (template-directed ligation), 42 °C
Experimental: (§1)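 Chip-synthesised pool of F1* ligase ribozyme variants (all single and double substitutions, single, double and triple deletions in the catalytic core and GAA bulge, plus designed variants) was transcribed with T7 and reacted as a pool with excess substrate F1*sub for 30 min at 42 C in 50 mM EPPS pH 8.5, 25 mM MgCl2. Ligated and unligated bands were separated by PAGE, barcoded by RT and deep sequenced; fraction ligated = ligated reads / total reads per variant, relative activity = FL / FL of wild type (0.826). Sequences are the DNA template of the ribozyme.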

Variant | fraction ligated
ACTGTCGTACACTGAT | 0.84
ACTGTCGTGAACTGAT | 0.858
ACTGTCGTGACACGAT | 0.812
ACTGTCGTGACACTAT | 0.79
ACTGTCGTGACACTGA | 0.13
ACTGTCGTGACACTGT | 0.694
ACTGTCGTGACATGAT | 0.846
ACTGTCGTGACCTGAT | 0.849
ACTGTCGTGCACTGAT | 0.833
ACTTGCGTACACTGAT | 0.837
ACTTGCGTGAACTGAT | 0.85
ACTTGCGTGACACGAT | 0.801
ACTTGCGTGACACTAT | 0.802
ACTTGCGTGACACTGA | 0.128
ACTTGCGTGACACTGT | 0.143
ACTTGCGTGACATGAT | 0.847
ACTTGCGTGACCTGAT | 0.815
ACTTGCGTGCACTGAT | 0.856
ACTTGTCGACACTGAT | 0.822
ACTTGTCGGAACTGAT | 0.813
ACTTGTCGGACACGAT | 0.775
ACTTGTCGGACACTAT | 0.769
ACTTGTCGGACACTGA | 0.15
ACTTGTCGGACACTGT | 0.236

Variant | fraction ligated
ACTTGTCGGACATGAT | 0.831
ACTTGTCGGACCTGAT | 0.801
ACTTGTCGGCACTGAT | 0.78
ACTTGTCTACACTGAT | 0.817
ACTTGTCTGAACTGAT | 0.787
ACTTGTCTGACACGAT | 0.786
ACTTGTCTGACACTAT | 0.775
ACTTGTCTGACACTGA | 0.169
ACTTGTCTGACACTGT | 0.285
ACTTGTCTGACATGAT | 0.834
ACTTGTCTGACCTGAT | 0.783
ACTTGTCTGCACTGAT | 0.797
ACTTGTGTACACTGAT | 0.86
ACTTGTGTGAACTGAT | 0.867
ACTTGTGTGACACGAT | 0.807
ACTTGTGTGACACTAT | 0.797
ACTTGTGTGACACTGA | 0.0628
ACTTGTGTGACACTGT | 0.0697
ACTTGTGTGACATGAT | 0.841
ACTTGTGTGACCTGAT | 0.844
ACTTGTGTGCACTGAT | 0.875
ACTTTCGTACACTGAT | 0.811
ACTTTCGTGAACTGAT | 0.873
ACTTTCGTGACACGAT | 0.779

Variant | fraction ligated
ACTTTCGTGACACTAT | 0.793
ACTTTCGTGACACTGA | 0.0557
ACTTTCGTGACACTGT | 0.0695
ACTTTCGTGACATGAT | 0.832
ACTTTCGTGACCTGAT | 0.773
ACTTTCGTGCACTGAT | 0.8
CTTGTCGTACACTGAT | 0.772
ATTGTCGTACACTGAT | 0.799
CTTGTCGTGAACTGAT | 0.809
ATTGTCGTGAACTGAT | 0.838
CTTGTCGTGACACGAT | 0.788
ATTGTCGTGACACGAT | 0.806
CTTGTCGTGACACTAT | 0.779
ATTGTCGTGACACTAT | 0.776
CTTGTCGTGACACTGA | 0.00758
ATTGTCGTGACACTGA | 0.12
CTTGTCGTGACACTGT | 0.346
ATTGTCGTGACACTGT | 0.583
CTTGTCGTGACATGAT | 0.794
ATTGTCGTGACATGAT | 0.811
CTTGTCGTGACCTGAT | 0.786
ATTGTCGTGACCTGAT | 0.79
CTTGTCGTGCACTGAT | 0.776
ATTGTCGTGCACTGAT | 0.777

Variants of: B2
Test: as above
Conditions: with F1*sub RNA substrate (template-directed ligation), 42 °C
Experimental: as §1

Variant | fraction ligated
TAACACTGATGTGAA | 0.832
TAGAACTGATGTGAA | 0.821
TAGACACGATGTGAA | 0.799
TAGACACTATGTGAA | 0.782
TAGACACTGAGTGAA | 0.168
TAGACACTGATGTAA | 0.834
TAGACACTGATGTAC | 0.56
TAGACACTGATGTAG | 0.773
TAGACACTGATGTAT | 0.762
TAGACACTGATGTCA | 0.792
TAGACACTGATGTCC | 0.0263
